Biological target: MBP-RU678 (human)
Assay: ITC; MicroCal ITC200, 25 °C, HBS (10 mM HEPES, 150 mM NaCl, pH 7.4); cell: 50 μM MBP-RU678; syringe: 0.5 mM Srr1-BR or Srr2-BR; single binding mode

| Substance | Kd [µM] | stoichiometry N |
| --- | --- | --- |
| Srr1-BR (untagged recombinant binding region of Srr1) (domain or fragment) | 69 | 1 |
| Srr2-BR (untagged recombinant binding region of Srr2) (domain or fragment) | 12 | 1 |
